# Substrate: O=C(O)c1ccc(O)c(O)c1
# Assay: spectrophotometric CHMS formation, nonlinear Michaelis-Menten fit
# Assay type: biochemical, Pseudarthrobacter phenanthrenivorans
# Details: 100 mM glycine-NaOH pH 9.5, 20 °C, co-substrate O2, Fe(II)/L-ascorbate preincubation likely, not stated for the Km
protein,measurement,value
"PcaA (PCA 4,5-dioxygenase) (Pseudarthrobacter phenanthrenivorans Sphe3) (protein, full-length single-subunit alpha-beta fusion from plasmid pASPHE302; 1302 bp amplicon NdeI/XhoI in pET29c(+), His-column purified from E. coli BL21(DE3); ~45 kDa on SDS-PAGE, predicted 48 kDa) MTLDKPYNDVPGTTIFDADQARKGYNLNQFCMSLMKPENRERYLADRGAYLDEWPLNPVQRQAVLDIDLNTCIAEGGNIYFLAKIGATHGLSFQQMAGSMTGMSEAAYRDMMIGGGRRPEGNRLKDLDGWTPPEPGEKAETVRQDAPAQYTSALFTSHVPAIGAAMDLGKTEEPYWKKVFSGYEWTREWAKENLPDVVILVYNDHATAFDSSIIPTFVLGTGAEYPVADEGYGPRPVPDVKGYPELAAHIAQSVIQDDFDLTLVNEMVVDHGLTVPLSLVYGDVEEWPVRVIPLAVNVVQYPVPSGRRCYELGRALRRALDKWDGEPLNVQIWGTGGMSHQLQGPRAGLINEEWDNAFLDHLIADPVGLTEWQHMEYVDEAGSEGIELVDWLIARGAMDDQFGGESPEVNHRFYHVPASNTAVGHLVLTNQTD",Km,21 ± 1.6 µM

# From publication PMC8431788, “Characterization of Protocatechuate 4,5-Dioxygenase from Pseudarthrobacter phenanthrenivorans Sphe3 and In Situ Reaction Monitoring in the NMR Tube” (International Journal of Molecular Sciences, 2021)
